The source of these data is US20200024330A1.

One may read the IC50 as the concentration that inhibits the measured activity by half. Low readings indicate higher potency, high ones lower potency.

Holding throughout (assay): cell-based or functional assay
For experiment [1], the target named is HIV-1 Env of isolate JRCSF (HIV-1) (UniProt P20871).
The target of experiment [2] is HIV-1 JR-CSF Env V127A (HIV-1 (isolate JR-CSF)) (UniProt P20871).
The target in experiment [3] is HIV-1 Env of isolate APV-17 (pseudovirus) (HIV-1 isolate APV-17, subtype B).
Experiment [4] concerns the target HIV-1 Env of isolate APV-13 (pseudovirus) (HIV-1 isolate APV-13, subtype B).
The target in experiment [5] is HIV-1 Env of isolate 93TH305 (pseudovirus) (HIV-1 isolate 93TH305, subtype B).
Experiment [6] addresses HIV-1 Env of isolate MGRM-C-024 (HIV-1).
The target of experiment [7] is HIV-1 Env of isolate MGRM-C-022 (HIV-1).
The target of experiment [8] is HIV-1 Env of isolate MGRM-AE-006 (CRF01_AE), on pseudovirus (HIV-1).
The target in experiment [9] is HIV-1 Env of isolate MGRM-C-019 (HIV-1).
Experiment [10] addresses HIV-1 Env of isolate MGRM-F1-016 (subtype F), on pseudovirus (HIV-1).
Experiment [11] deals with HIV-1 Env of isolate 92UG114 (HIV-1).
For experiment [12], the target named is HIV-1 Env of isolate 93MW959 (HIV-1).
For experiment [13], the target named is HIV-1 Env of isolate MGRM-Chronic-B-008 (HIV-1).
Experiment [14] concerns the target HIV-1 Env of isolate 93WR029 (HIV-1).
Experiment [15] has as its target HIV-1 Env of isolate MGRM-D-026 (subtype D), on pseudovirus (HIV-1).
In experiment [16] the target is HIV-1 Env of isolate MGRM-F1-023 (subtype F), on pseudovirus (HIV-1).
Experiment [17] addresses HIV-1 Env of isolate MGRM-D-021 (HIV-1).
In experiment [18] the target is HIV-1 JR-CSF Env D474A (HIV-1 (isolate JR-CSF)) (UniProt P20871).
Experiment [19] addresses HIV-1 CMU02 envelope glycoprotein (Env) on pseudovirus (HIV-1).
Experiment [20] addresses HIV-1 93IN905 envelope glycoprotein (Env) on pseudovirus (HIV-1).

Turning to 5114_A19 (PGT-128) (antibody), the IC50 in experiment [1] is 0.003 µg/mL; in [6], > 50 µg/mL; in experiment [7], 0.042 µg/mL; in experiment [9] it was 0.01 µg/mL; in experiment [11] it was 0.083 µg/mL; in experiment [12], 0.045 µg/mL. Also, the IC50 in [13] turned out to be 0.143 µg/mL; in [17] it was 0.014 µg/mL. The values for the Fold IC50 increase relative to wild-type in experiment [2] and in [18] were 1.1 fold and 0.8 fold, respectively. Further, the IC50 (µg/mL) neutralization in [3] was determined as 0.016 µg/mL; in experiment [4] it was 0.008 µg/mL; in experiment [5] it was 0.006 µg/mL. For the same substance, the IC50, single-round pseudovirus neutralization in [8] was 0.044 µg/mL. Also, the IC50, pseudovirus neutralization in [10] is 1.21 µg/mL; in experiment [15] it was > 50 µg/mL; in [16], 0.007 µg/mL. For the same substance, the neutralization IC50 in experiment [14] is > 50 µg/mL.
In the case of 5136_H01 (PGT-131) (antibody), the IC50 is 0.029 µg/mL in experiment [1]; > 50 µg/mL in experiment [6]; 0.78 µg/mL in experiment [7]; 0.021 µg/mL in experiment [9]; > 50 µg/mL in [11]; > 50 µg/mL in experiment [12]. For the same substance, the figures for the IC50 in experiment [13] and in experiment [17] were > 50 µg/mL and 0.106 µg/mL, respectively. Further, the Fold IC50 increase relative to wild-type in experiment [2] came out at 0.6 fold; in [18], 1.6 fold. In addition, the IC50 (µg/mL) neutralization in experiment [3] is > 50 µg/mL; in experiment [4], 0.189 µg/mL; in experiment [5] it was 0.016 µg/mL. In experiment [8], the IC50, single-round pseudovirus neutralization came out at 0.026 µg/mL. In addition, the IC50, pseudovirus neutralization in [10], in experiment [15] and in experiment [16] was > 50 µg/mL in each case. In [14], the neutralization IC50 is > 50 µg/mL.
As to 5147_N06 (PGT-130) (antibody), the IC50 in [1] is 0.01 µg/mL; in experiment [6], > 50 µg/mL; in experiment [7] it was 0.127 µg/mL; in experiment [9] it was 0.01 µg/mL; in [11] it was > 50 µg/mL; in experiment [12], 8.55 µg/mL. Also, the IC50 in [13] worked out at 5.18 µg/mL; in experiment [17] it was 0.156 µg/mL. For the same substance, the Fold IC50 increase relative to wild-type in experiment [2] came out at 0.8 fold; in experiment [18], 2 fold. The IC50 (µg/mL) neutralization in experiment [3] stood at 10.7 µg/mL; in experiment [4] it was 0.052 µg/mL; in experiment [5], 0.021 µg/mL. The IC50 (ug/ml), neutralizing activity was > 10 µg/mL in experiment [19] and 0.0182 µg/mL in experiment [20]. The substance also had an IC50, single-round pseudovirus neutralization in [8] of 0.009 µg/mL. In addition, the IC50, pseudovirus neutralization was > 50 µg/mL in experiment [10], > 50 µg/mL in [15] and 0.05 µg/mL in [16]. The same substance came in with a neutralization IC50 in experiment [14] of 34.3 µg/mL.
Turning to 5343_B08 (PGT-135) (antibody), the IC50 in experiment [1] is 0.131 µg/mL; in experiment [6] it was > 50 µg/mL; in experiment [7], > 50 µg/mL; in experiment [9] it was 0.264 µg/mL; in experiment [11] it was 1.29 µg/mL; in experiment [12] it was > 50 µg/mL. For the same substance, the IC50 in experiment [13] and in [17] was > 50 µg/mL each time. For the same substance, the Fold IC50 increase relative to wild-type in [2] came to 1.4 fold; in experiment [18], 1.2 fold. The IC50 (µg/mL) neutralization in [3] is > 50 µg/mL; in experiment [4] it was 0.716 µg/mL; in experiment [5], > 50 µg/mL. In addition, the IC50, single-round pseudovirus neutralization in experiment [8] was > 50 µg/mL. The IC50, pseudovirus neutralization in [10] is > 50 µg/mL; in experiment [15], > 50 µg/mL; in experiment [16] it was 0.088 µg/mL. Also, in [14], the neutralization IC50 is > 50 µg/mL.
